From FireProtDB (doi:10.1021/bi00146a008)

Details: Homo sapiens, pH 2.8, Thermal, DSC, glycine-HCl 50 mM, reversible: yes, whole UniProt chain shown

B1: Lysozyme C wild type, P61626 (protein)
chain: MKALIVLGLVLLSVTVQGKVFERCELARTLKRLGMDGYRGISLANWMCLAKWESGYNTRATNYNAGDRSTDYGIFQINSRYWCNDGKTPGAVNACHLSCSALLQDNIADAVACAKRVVRDPQGIRAWVAWRNRCQNRDVRQYVQGCGV
In the case of B1, the “heat capacity change of unfolding” value (68.8 °C) is reported as 1.58 kcal/mol/K, the “unfolding enthalpy (calorimetric)” value (68.8 °C) is reported as 120 kcal/mol and the Tm is reported as 68.8 °C. The “heat capacity change of unfolding” value was 1.58 kcal/mol/K.
